# B1: GpH7-A5/GpH7-B3 variant S239_19Q/GpL16-k0 (antibody, human IgG1, kappa)
# heavy 1: not shown
# heavy 2: not shown
# light: DIVMTQSPLSLPVTPGEPASISCQASESLVHSNRNTYLHWYLQKPGQSPQLLIYKVSNRFSGVPDRFSGSGSGTDFTLKISRVEAEDVGVYYCSQNTHVPPTFGQGTKVEIERTVAAPSVFIFPPSDEQLKSGTASVVCLLNNFYPREAKVQWKVDNALQSGNSQESVTEQDSKDSTYSLSSTLTLSKADYEKHKVYACEVTHQGLSSPVTKSFNRGEC
# notes: mutation in one H chain only; also called He Ab S239_19Q; S239Q
# B2: GpH7-A5/GpH7-B3 variant S267_01G/GpL16-k0 (antibody, human IgG1, kappa)
# heavy 1: not shown
# heavy 2: not shown
# light: B1 light
# notes: mutation in one H chain only; also called He Ab S267_01G; S267G
# B3: GpH7-A5/GpH7-B3 variant S267_02A/GpL16-k0 (antibody, human IgG1, kappa)
# heavy 1: not shown
# heavy 2: not shown
# light: B1 light
# notes: mutation in one H chain only; also called He Ab S267_02A; S267A
# B4: GpH7-A5/GpH7-B3 variant S267_03V/GpL16-k0 (antibody, human IgG1, kappa)
# heavy 1: not shown
# heavy 2: not shown
# light: B1 light
# notes: mutation in one H chain only; also called He Ab S267_03V; S267V
# B5: GpH7-A5/GpH7-B3 variant S267_08L/GpL16-k0 (antibody, human IgG1, kappa)
# heavy 1: not shown
# heavy 2: not shown
# light: B1 light
# notes: mutation in one H chain only; also called He Ab S267_08L; S267L
# B6: GpH7-A5/GpH7-B3 variant S267_09D/GpL16-k0 (antibody, human IgG1, kappa)
# heavy 1: not shown
# heavy 2: not shown
# light: B1 light
# notes: mutation in one H chain only; also called He Ab S267_09D; S267D
# B7: GpH7-A5/GpH7-B3 variant S267_16H/GpL16-k0 (antibody, human IgG1, kappa)
# heavy 1: not shown
# heavy 2: not shown
# light: B1 light
# notes: mutation in one H chain only; also called He Ab S267_16H; S267H
# B8: GpH7-A5/GpH7-B3 variant S298_01G/GpL16-k0 (antibody, human IgG1, kappa)
# heavy 1: not shown
# heavy 2: not shown
# light: B1 light
# notes: mutation in one H chain only; also called He Ab S298_01G; S298G
# B9: GpH7-A5/GpH7-B3 variant S298_02A/GpL16-k0 (antibody, human IgG1, kappa)
# heavy 1: not shown
# heavy 2: not shown
# light: B1 light
# notes: mutation in one H chain only; also called He Ab S298_02A; S298A
# B10: GpH7-A5/GpH7-B3 variant S298_03V/GpL16-k0 (antibody, human IgG1, kappa)
# heavy 1: not shown
# heavy 2: not shown
# light: B1 light
# notes: mutation in one H chain only; also called He Ab S298_03V; S298V
# B11: GpH7-A5/GpH7-B3 variant S298_04F/GpL16-k0 (antibody, human IgG1, kappa)
# heavy 1: not shown
# heavy 2: not shown
# light: B1 light
# notes: mutation in one H chain only; also called He Ab S298_04F; S298F
# B12: GpH7-A5/GpH7-B3 variant S298_06M/GpL16-k0 (antibody, human IgG1, kappa)
# heavy 1: not shown
# heavy 2: not shown
# light: B1 light
# notes: mutation in one H chain only; also called He Ab S298_06M; S298M
# B13: GpH7-A5/GpH7-B3 variant S298_07I/GpL16-k0 (antibody, human IgG1, kappa)
# heavy 1: not shown
# heavy 2: not shown
# light: B1 light
# notes: mutation in one H chain only; also called He Ab S298_07I; S298I
# B14: GpH7-A5/GpH7-B3 variant S298_08L/GpL16-k0 (antibody, human IgG1, kappa)
# heavy 1: not shown
# heavy 2: not shown
# light: B1 light
# notes: mutation in one H chain only; also called He Ab S298_08L; S298L
# B15: GpH7-A5/GpH7-B3 variant S298_10E/GpL16-k0 (antibody, human IgG1, kappa)
# heavy 1: not shown
# heavy 2: not shown
# light: B1 light
# notes: mutation in one H chain only; also called He Ab S298_10E; S298E
# B16: GpH7-A5/GpH7-B3 variant S298_12R/GpL16-k0 (antibody, human IgG1, kappa)
# heavy 1: not shown
# heavy 2: not shown
# light: B1 light
# notes: mutation in one H chain only; also called He Ab S298_12R; S298R
# B17: GpH7-A5/GpH7-B3 variant S298_14T/GpL16-k0 (antibody, human IgG1, kappa)
# heavy 1: not shown
# heavy 2: not shown
# light: B1 light
# notes: mutation in one H chain only; also called He Ab S298_14T; S298T
# B18: GpH7-A5/GpH7-B3 variant S298_15Y/GpL16-k0 (antibody, human IgG1, kappa)
# heavy 1: not shown
# heavy 2: not shown
# light: B1 light
# notes: mutation in one H chain only; also called He Ab S298_15Y; S298Y
# B19: GpH7-A5/GpH7-B3 variant S298_16H/GpL16-k0 (antibody, human IgG1, kappa)
# heavy 1: not shown
# heavy 2: not shown
# light: B1 light
# notes: mutation in one H chain only; also called He Ab S298_16H; S298H
# B20: GpH7-A5/GpH7-B3 variant S298_18N/GpL16-k0 (antibody, human IgG1, kappa)
# heavy 1: not shown
# heavy 2: not shown
# light: B1 light
# notes: mutation in one H chain only; also called He Ab S298_18N; S298N
# B21: GpH7-A5/GpH7-B3 variant S298_19Q/GpL16-k0 (antibody, human IgG1, kappa)
# heavy 1: not shown
# heavy 2: not shown
# light: B1 light
# notes: mutation in one H chain only; also called He Ab S298_19Q; S298Q
# B22: GpH7-A5/GpH7-B3 variant S298_20W/GpL16-k0 (antibody, human IgG1, kappa)
# heavy 1: not shown
# heavy 2: not shown
# light: B1 light
# notes: mutation in one H chain only; also called He Ab S298_20W; S298W
# B23: GpH7-A5/GpH7-B3 variant S324_02A/GpL16-k0 (antibody, human IgG1, kappa)
# heavy 1: not shown
# heavy 2: not shown
# light: B1 light
# notes: mutation in one H chain only; also called He Ab S324_02A; S324A
# B24: GpH7-A5/GpH7-B3 variant S324_03V/GpL16-k0 (antibody, human IgG1, kappa)
# heavy 1: not shown
# heavy 2: not shown
# light: B1 light
# notes: mutation in one H chain only; also called He Ab S324_03V; S324V
# B25: GpH7-A5/GpH7-B3 variant S324_08L/GpL16-k0 (antibody, human IgG1, kappa)
# heavy 1: not shown
# heavy 2: not shown
# light: B1 light
# notes: mutation in one H chain only; also called He Ab S324_08L; S324L
# B26: GpH7-A5/GpH7-B3 variant S324_11K/GpL16-k0 (antibody, human IgG1, kappa)
# heavy 1: not shown
# heavy 2: not shown
# light: B1 light
# notes: mutation in one H chain only; also called He Ab S324_11K; S324K
# B27: GpH7-A5/GpH7-B3 variant S324_12R/GpL16-k0 (antibody, human IgG1, kappa)
# heavy 1: not shown
# heavy 2: not shown
# light: B1 light
# notes: mutation in one H chain only; also called He Ab S324_12R; S324R
# B28: GpH7-A5/GpH7-B3 variant S324_14T/GpL16-k0 (antibody, human IgG1, kappa)
# heavy 1: not shown
# heavy 2: not shown
# light: B1 light
# notes: mutation in one H chain only; also called He Ab S324_14T; S324T
# B29: GpH7-A5/GpH7-B3 variant S324_15Y/GpL16-k0 (antibody, human IgG1, kappa)
# heavy 1: not shown
# heavy 2: not shown
# light: B1 light
# notes: mutation in one H chain only; also called He Ab S324_15Y; S324Y
# B30: GpH7-A5/GpH7-B3 variant S324_16H/GpL16-k0 (antibody, human IgG1, kappa)
# heavy 1: not shown
# heavy 2: not shown
# light: B1 light
# notes: mutation in one H chain only; also called He Ab S324_16H; S324H
# B31: GpH7-A5/GpH7-B3 variant S324_18N/GpL16-k0 (antibody, human IgG1, kappa)
# heavy 1: not shown
# heavy 2: not shown
# light: B1 light
# notes: mutation in one H chain only; also called He Ab S324_18N; S324N
# B32: GpH7-A5/GpH7-B3 variant S324_19Q/GpL16-k0 (antibody, human IgG1, kappa)
# heavy 1: not shown
# heavy 2: not shown
# light: B1 light
# notes: mutation in one H chain only; also called He Ab S324_19Q; S324Q
# B33: GpH7-A5/GpH7-B3 variant S324_20W/GpL16-k0 (antibody, human IgG1, kappa)
# heavy 1: not shown
# heavy 2: not shown
# light: B1 light
# notes: mutation in one H chain only; also called He Ab S324_20W; S324W
# B34: GpH7-A5/GpH7-B3 variant S337_01G/GpL16-k0 (antibody, human IgG1, kappa)
# heavy 1: not shown
# heavy 2: not shown
# light: B1 light
# notes: mutation in one H chain only; also called He Ab S337_01G; S337G
# B35: GpH7-A5/GpH7-B3 variant S337_02A/GpL16-k0 (antibody, human IgG1, kappa)
# heavy 1: not shown
# heavy 2: not shown
# light: B1 light
# notes: mutation in one H chain only; also called He Ab S337_02A; S337A
# B36: GpH7-A5/GpH7-B3 variant S337_03V/GpL16-k0 (antibody, human IgG1, kappa)
# heavy 1: not shown
# heavy 2: not shown
# light: B1 light
# notes: mutation in one H chain only; also called He Ab S337_03V; S337V
# B37: GpH7-A5/GpH7-B3 variant S337_04F/GpL16-k0 (antibody, human IgG1, kappa)
# heavy 1: not shown
# heavy 2: not shown
# light: B1 light
# notes: mutation in one H chain only; also called He Ab S337_04F; S337F
# B38: GpH7-A5/GpH7-B3 variant S337_06M/GpL16-k0 (antibody, human IgG1, kappa)
# heavy 1: not shown
# heavy 2: not shown
# light: B1 light
# notes: mutation in one H chain only; also called He Ab S337_06M; S337M
# B39: GpH7-A5/GpH7-B3 variant S337_07I/GpL16-k0 (antibody, human IgG1, kappa)
# heavy 1: not shown
# heavy 2: not shown
# light: B1 light
# notes: mutation in one H chain only; also called He Ab S337_07I; S337I
# B40: GpH7-A5/GpH7-B3 variant S337_08L/GpL16-k0 (antibody, human IgG1, kappa)
# heavy 1: not shown
# heavy 2: not shown
# light: B1 light
# notes: mutation in one H chain only; also called He Ab S337_08L; S337L
# B41: GpH7-A5/GpH7-B3 variant S337_09D/GpL16-k0 (antibody, human IgG1, kappa)
# heavy 1: not shown
# heavy 2: not shown
# light: B1 light
# notes: mutation in one H chain only; also called He Ab S337_09D; S337D
# B42: GpH7-A5/GpH7-B3 variant S337_10E/GpL16-k0 (antibody, human IgG1, kappa)
# heavy 1: not shown
# heavy 2: not shown
# light: B1 light
# notes: mutation in one H chain only; also called He Ab S337_10E; S337E
# B43: GpH7-A5/GpH7-B3 variant S337_12R/GpL16-k0 (antibody, human IgG1, kappa)
# heavy 1: not shown
# heavy 2: not shown
# light: B1 light
# notes: mutation in one H chain only; also called He Ab S337_12R; S337R
# B44: GpH7-A5/GpH7-B3 variant S337_15Y/GpL16-k0 (antibody, human IgG1, kappa)
# heavy 1: not shown
# heavy 2: not shown
# light: B1 light
# notes: mutation in one H chain only; also called He Ab S337_15Y; S337Y
# Molecular target: T1, FcγRIa extracellular domain with C-terminal His tag (human, UniProt P12314 16-292)
# T1 construct: extracellular domain; also called FcgRI; CD64; not shown: His tag at the C terminus
# T1 sequence (P12314 16-292): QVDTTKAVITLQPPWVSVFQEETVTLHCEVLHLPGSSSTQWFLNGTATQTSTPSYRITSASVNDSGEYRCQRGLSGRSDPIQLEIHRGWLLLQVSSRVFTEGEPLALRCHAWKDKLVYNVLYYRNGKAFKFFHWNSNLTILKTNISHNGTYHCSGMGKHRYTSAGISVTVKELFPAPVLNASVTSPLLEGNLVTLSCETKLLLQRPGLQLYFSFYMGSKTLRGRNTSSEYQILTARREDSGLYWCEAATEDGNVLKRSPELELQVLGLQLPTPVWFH
# Assay: SPR Biacore, relative FcγRIa binding vs GpH7-A5/GpH7-B3/GpL16-k0
row,Binder,He/Con_1a
1,B1,101 % of HeCon Ab (=100)
2,B2,103 % of HeCon Ab (=100)
3,B3,109 % of HeCon Ab (=100)
4,B4,106 % of HeCon Ab (=100)
5,B5,101 % of HeCon Ab (=100)
6,B6,110 % of HeCon Ab (=100)
7,B7,100 % of HeCon Ab (=100)
8,B8,104 % of HeCon Ab (=100)
9,B9,107 % of HeCon Ab (=100)
10,B10,110 % of HeCon Ab (=100)
11,B11,109 % of HeCon Ab (=100)
12,B12,114 % of HeCon Ab (=100)
13,B13,107 % of HeCon Ab (=100)
14,B14,107 % of HeCon Ab (=100)
15,B15,108 % of HeCon Ab (=100)
16,B16,109 % of HeCon Ab (=100)
17,B17,107 % of HeCon Ab (=100)
18,B18,107 % of HeCon Ab (=100)
19,B19,109 % of HeCon Ab (=100)
20,B20,108 % of HeCon Ab (=100)
21,B21,109 % of HeCon Ab (=100)
22,B22,104 % of HeCon Ab (=100)

row,Binder,He/Con_1a
1,B23,103 % of HeCon Ab (=100)
2,B24,104 % of HeCon Ab (=100)
3,B25,103 % of HeCon Ab (=100)
4,B26,102 % of HeCon Ab (=100)
5,B27,102 % of HeCon Ab (=100)
6,B28,121 % of HeCon Ab (=100)
7,B29,114 % of HeCon Ab (=100)
8,B30,113 % of HeCon Ab (=100)
9,B31,116 % of HeCon Ab (=100)
10,B32,112 % of HeCon Ab (=100)
11,B33,114 % of HeCon Ab (=100)
12,B34,107 % of HeCon Ab (=100)
13,B35,106 % of HeCon Ab (=100)
14,B36,107 % of HeCon Ab (=100)
15,B37,106 % of HeCon Ab (=100)
16,B38,107 % of HeCon Ab (=100)
17,B39,105 % of HeCon Ab (=100)
18,B40,105 % of HeCon Ab (=100)
19,B41,106 % of HeCon Ab (=100)
20,B42,106 % of HeCon Ab (=100)
21,B43,106 % of HeCon Ab (=100)
22,B44,104 % of HeCon Ab (=100)
